Results published in the DeepSol protein solubility set.

Assay: soluble on expression in E. coli; label from the status in PepcDB or PDB records

Sequence | soluble on expression in E. coli
MGSDKIHHHHHHMVSPVVARIIELLPDSCVGFIGKRILNMYLNKYADINVHGMENLKGIDKPIMFIGNHLSNSDGLVLNKVLKDYDVTFVAGVKLKGDAITNLGTYCVKTTEIKPNTADKDGIYRVIDILKSNHNILMFPEGTRSRTGAMIEAKRGPLFIAKLSKAIIVPVGICGSEKLLPINKEGNMSNENFHHAKVEVNIGKPFYFDKRMKEESKKDYEKRALDNAMYKIAELIPENYRGVYSDIKKVL | not soluble
MGSDKIHHHHHHMVYPVKDIQSVRDLALLAIRNKVSLEQQVETLGFESETYDYSSLLADLKVLPPLDHPDPTHCLISGTGLTHLGSASARDKMHQQNLSNDSSVTDTMRIFQWGLQKGRPAEGQIGAQPEWFYKGDGSIVVRPGAELPLPPFAEDGGEEPEIAGLYVIGEDLKPYRIGFALGNEYSDHVMERRNYLYLAHSKLRFCSFGPALRTGELPKHLVGTSRLRRDGQIIWEKEFLSGEDNMCHSLANLEYHHFKYQQFLKAGDVHIHYFGTATLSFADGIQAQVNDEFEIEMKEFGHPLKNKLAHMQPELPIGSVITL | not soluble
MGSDKIHHHHHHMWCRNLTVRYPDQDRDVLNDLTVSLRQGETTLLIGPSGSGKTTFLHTLAGLMPETIEAEVTGEWRADGTVGMLFQQPDDQFCMQTVGAEIAFSLENRSIPRDEMEERIRTVLKRVGLDLALTTQIAGLSGGMKQRLALACVLALEPDILLLDEPTAQLDPHGRRLMMELIEELHHNPNVTLVLIEHQLEECVTFADRVLVFREGQLRLDGSPLDVFEEKREDLTRHGIMCPLLYPYTLETIPLTIATARFLDGPPVARRPVANETTLDLTDVTIAHGKRMILDQISLTASAGEWIMLVGRNGAGKSTLLETLAKLLPAQSGTIKLFQTPLKKWRDRTFYRQVGFVFQQPEFQFLKQTVADELAISSPSPARSQVADALQHYRLEDVAAQSPLALSLGQKRRLSVATMLLERKAVLLLDEPTFGQDAETTAQILDVLHQAREAGTTLIMVTHDMELVYRYADRVVVIGEKHVQFDGAPDELFRNESLLEHNQLIRPVSVRYQQLEEVKHRAGKQFVARTP | not soluble
MGSDKIHHHHHHMWIEQRLWTPEGGWTVTETSPGKASLVLYFAAPGALTPESILADLRVAYGNAPILGCTTGGEILGPEVLDDSIVVSALGFDKASVRMASRDLSDVSQSRETGAALARELAGEDLRAIFILSDGTKVNGDSLVAGCLSAVTSDVVVTGGLAGDGARFQTTAVGCSDAMRPGRVAAVGFYGDSLAIGHGSFGGWDEFGPPRTITRSAANVLYELDGEPALDLYKRYLGEEAQGLPGSALLFPLSIRPSGDDAGAEVVRTIVGIDEEAKSMIFAGDVPTGHLARLMRGNFDNLVDGAGRAAEAAAAIKGPSLGLLVSCIGRKLLMGQRIAEEVEIVSDVLGKEASLMGFYSYGEISPHGFTGKCELHNQTMTITTISER | not soluble
MGSDKIHHHHHHMWKHVKQVDPEIYEVLVNELKRQEYGLELIASENFASLAVIETMGSMLTNKYAEGYPKKRYYGGCEWVDRAEERAIERAKRLFGAKFANVQPHSGSQANMAVYLALAQPGDTIMGMSLSHGGHLTHGAPVNFSGKIFKVVPYGVNLETETIDYDEVRRLALEHKPKIIVAGGSAYARIIDFKRFREIADEVGAYLMVDMAHFAGLVAAGIHPNPLEYAHVVTSTTHKTLRGPRGGLILTNDPEIAKAVDKTIFPGIQGGPLMHVIAAKAVCFKEAMTEEFKEYQKQVVKNAKKMAEEFQKRGYRIVSGGTDTHLFLVDLTPKDITGKAAEKALESCGITVNKNTIPNEKRSPFVASGIRIGTPAVTTRGMKEEEMEEIAEMIDLVLSNVIDENGTVKPEVREEVSKKVRELCERFPLYRDKIEGVEI | not soluble
MGSDKIHHHHHHMWQFPLFETILIEQGQAKNISYHQQRYEKSLLKFYPKMKLQPFDLAKIIAKHTALFTHREGLIRCRIDYNHHDYVLQCFPYQQKVYRTFKPVFCDHIDYSLKFSDRTLLNNLLKQKEECDEIMIIRQGKVTDCSIGNLIFRQNNQWITPDKPLLEGTQRAKLLEQKKIIAREIFFEDLAQYEEIRLINAMNGL | not soluble
MGSDKIHHHHHHMWTPCGRADGNANSPRQSQFALDDLIDIPTDFSLYSTALKKFSQGMERPMYRNFRIVPNIIFGRGSFNQLDDVLKDRRVTADSWMVFVVDDVFTGKPLEGRFPLRGRDLLLWVNVDDEPKTRYIDELVARIRAYSPTAPAGIAGIGGGSAMDIAKAVSLMLNNPGSSADYQGWDLIKNPAVYHVAVPTLAGTGAEISRTTILTGPEKKLGINSDYTLYDQILLDPELLAGVPKNQWFYTGMDCYIHDVESLNGTFINEFSKAYGEKSRDLCREVFLDDSPAKDDKLMMASYFGGMSIAYSQVGACHALSYGLSYVLGIHHGVGCCIAFDQLEEIYPEGVQEFRQMMEKHDIPLPRNLTKDLDSASMEKMVTTALNLVPLWENCLGPDWANIMTRERAMELYKKM | not soluble
MGSDKIHHHHHHMYAAHPIKPLKAPKLKTQFLRRVFVGASIRRWNDQACPLEFVELDKQAHKAMIAYLLAKDLKDRGNDLDLDLLIKFFCFEFLERLVLTDIKPPIFYALQQTHSQELASYVVQSLQDEISMYFSLEELKEYLSHRPQILETQILESAHFYASKWEFDIIYHFNPNMYGVKEIKDKIDKQLHNNEHLFEGLFGEKEDLKKLVSMFGQLRFQKRWSQTPRVPQTSVLGHTLCVALMGYLLSFDLKACKSMRINHFLGGLFHDLPEILTRDIITPIKQSVAGLDHCIKEIEKKEMQNKVYSFVSLGVQEDLKYFTENEFKNRYKDKSNKIIFTKDAEELFTLYNSDEYLGVCGELLKVCDHLSAFLEAQISLSHGISSNDLIKGAQNLLELRSQTELLDLDLGKLFRDFK | not soluble
MGSDKIHHHHHHMYANASSENGAVNVSDDGPPLRIIHCFRSPVGGVFRHVRDLIEEHVRQGHKVGIVCDSSTGGAHEERLFAQITPMLELGLTRLPIRRSISPGDLLALWKSYKHIKSLRPDILHGHSAKGGALARLIGSLLRANRYRVARLYSPHGGSLHYARNSLKGQLFLRLERFQEHFTDALCFVCNFEQETYETKVGKPRTRTAMIYNGVQESEFETVPPRDGAARFLYIGMLRDLKGPDVFIRAFAKMERSIGQPMSGVIVGDGPDRDKYAAMIATAGLSRRISMHAAMPARQAFELATTVVVPSRAEAMPYIVLEALAAGKTVIASHVGGIPEVLGEDSEALVPAGDADALARTMVKDAADADWAQRVMPHPDSFKAKFSTPVMADEMMKLYRDLLTT | not soluble
MGSDKIHHHHHHMYEEIIEKLDLQMNRMISFLSKKMRLFFQDLEKRFTNRAILLYGPRGAGKTTFLLSMARKHGFLYVSGDEILLLDVPLHDLFQEIMKNYPGIIIDEVHLLKNWSTILKVLYDSFPDKVIWTSDSSSVLLRKGISDLSRRFVLIRMPLMSFREFIHFETGKTLRKLSSPFEVSIDYAAEALKEVDLMSLFRKYRETGTRPFYVEGNFREKLMNILQKAIYYDVPHFLGTVTENHLGVMKAIVGHLLHSKIPTINVESMCREWGVGKQKFYQLLQTMEEIELVNIVRKKRVEKPFSKGEKIFLSDPAMYYAFEGEIGNFREAFVVFALKEIGKIYAVKNEEEGDYVFEGIKIEVGGKSKKKKSSDFVIRDDVDLPVRNVIPMWMLGMLW | not soluble
MGSDKIHHHHHHMYGKTELMMSNACGLDFGTSNSTVGWTRPGHPAALLPLEDGKLTLPSVIFFHAEDPLVSYGRAALDDYLAGYEGRLMRSLKSLLGTSMMEDSTEVMGQAMPFRKLLAHFIGELKARAERSAGTTFTRAVLGRPVFFIDEDPAADRLAEQTLAEIARDAGFRDIEFQYEPIAAAFDYEAKISDEELVLVVDIGGGTSDFSLVRLSPERAKRIDRREDILANGGVHIGGTDFDRALSLARAMPLLGLGSKLRSGKEMPSSQYFDLASWHTINLVYTRKAWSIVMDNYRDAADTVKLDRLIRLIRERAGHWLAIQMEAAKIALSGVDRTDVDLHRIEPELMLSITRDEFDESIGKLVAKTEKTVTDMLASAGVDGASVDTILFTGGSSSVPMLRHQLGQLLPRARRVEGDLFGGIGSGLALDAARKFG | not soluble
MGSDKIHHHHHHMYIQIVFAVKGRNSLIHPSWENELHKYMTGFIQNNGQKLLAINGMPDHIHILIGMKPSCCLSDLIRELKKSSSSFIKDKKLSPYAFQWQEGYGAFSYSHSNLNQVIAYIMNQKEHHKKRTFKEEYLEFIQKFELEYNPKNLFEWMD | not soluble
MGSDKIHHHHHHMYKFNPQRIQIGISACLLGEKVRFDGGHKNSTYCNQEIKQFFDYVPICPEMAIGLGAPRKSIRLVRDGETILVQSGDGSLDVTDKLNEYSENKVEELDFLGGYLLCAKSPTCGMERVTEYKIGTNNGSKSGIGVFARKLMERYPLLPVEEEGRLHDMVLRENFFTRVYAYHDWHLMKHEGLTKHKLVKFHSRYKYLLMAHSPTWYRELGPIVANIEDLEQSATRYFEGFMTALKINATRKNHTSTLQHIQGYFKKHLSKEQKTELSEAIMKYREGLLPLLVPITLINHYLREFPTPYIEEQVYLNPHPEALKLRYAY | not soluble
MGSDKIHHHHHHMYKLNQNETPLFNALMEYVNRDTIPFHVPGHKKGNGIDKEFKNFIGENPFKIDVTVFKLVDSLHHPTGPIKKAQELAADAYGSKAAFYSVNGTSGAIQGMILSVVGDGDKIIVPRNVHKSVTAGIILSGAVPVYMHPEVDRRVGIAHGVSPETVGETLKNNPDAKAVLLINPTYYGVSTDIKKIADIVHSYDIPLIVDEAHGPHLSFNDRLPVSALKAGADMCAQSTHKIIGALTQMSLLHVNSDRIDMNRVQQIMNLLQTTSPSYILMASMDCARRQIALHGKELLDGTIDLCNYARREINKIPGFYCFGEEVLGKPGSYAFDPTKLTITCTDLGITGYDLDMLLANDYHIQVELSDLYNVLAVGSFGDTKENIDALINALRQISKSISSTVKNKKNSFIDIPDVPERILSPRDAFNGAKESMLIKDSVGKTSGEFLMAYPPGIPVLCPGEIITQEIIDYVSDLKAAGLYVQGTEDPDVNYIKVLK | not soluble
MGSDKIHHHHHHMYKYKFTVFTPTYNRAHLLENLYNDLKAQTYDFNDFEWLIVDDGSSDSTKELVEKFISENKLNIRYIYKENGGKHTAINLGVKNADGELFFIVDSDDGLIKDSLEIANDEWDSLENKEGFSGVVGLCVYPSGDLIGTEMPEDKKICHFADLYFKYGVKGDKSIVFVTDELIKFPFPERKEVRFLPESVVWNEMSKYYKVICVNKPMIIRDYLDDGLTKNILSKNALRGRALEFLYLINQNTYPLSRYPYMWIKNYINLARYSLLSDSHYFGELRKVSDKLLYLALFPLGYYKYIGQRKLVSK | not soluble
MGSDKIHHHHHHMYQVIANFSFQNFEHDPVILINQIINQWRYNGQIIGREFSVTYHTQPSAHFQVRLATPEQISLMPEWNNDQVTEALSQAAEKGVEFESFEIIGRDYQAEQTSENSNARFYILYTTHLDSCSPLYNGDDFCPVPLYRLLQKDQSLAQALIKWQENWQACDQLQMNGTILEQPALNEISEIDSNLAQLGIKLCREVERVTQVPTYYYLYRLGTDEAVEYQRKCSSCGAEWRLTEPLHQIFHFKCDKCRLISNLSWQLQK | not soluble
MGSDKIHHHHHHMYRLMDRQQMPFLFRFLSDSELYAFKDGQIISTFNKCGLFFCRKGNVEVSLEDKHFQINPGDVYIYMASTLVHLLHKSEDAEGVMVEVDLDYIIPIVNRVINVENQLFMRKHPCISLSDKQRAHLEYLLDNLRERIEAEDVQEVNLQQQRLTLELIKSMGQTFCYEILNMYFANQPMQPLPQNKKDVIFQNFMLALFRLYRKERDVAYYARMQHITPRYFSTIIKEKSGNSALQWIVQMVITEAKQLLEGSDLSIKEIADQLNFPTQSFFGKYFKQYVGISPKEYRKGKLRIKDGI | not soluble
